Biological target: GST-BLMP-1(ZnFs) (Caenorhabditis elegans, UniProt Q93560 508-642)
Experiment: competition

Chain of GST-BLMP-1(ZnFs) (Q93560 508-642): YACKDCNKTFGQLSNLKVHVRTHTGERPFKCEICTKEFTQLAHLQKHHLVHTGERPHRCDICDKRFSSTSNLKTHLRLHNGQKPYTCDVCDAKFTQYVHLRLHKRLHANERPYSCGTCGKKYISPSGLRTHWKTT

B1: non-specific sequence (dsDNA)
DNA 1: GGCTCTTCCGGTCGTGCAAGAGGAAATACAAAAAA
DNA 2: TTTTTTGTATTTCCTCTTGCACGACCGGAAGAGCC
  binding result: no binding

From PMC7904604
